Target: PDZ1/2 domain (Homo sapiens (Human)) (UniProt P78352)
Assay: SPR, Biacore 3000, PDZ1/2 amine-coupled on CM5 chip, peptide as analyte, 1:1 binding model

Chain of PDZ1/2 domain (Homo sapiens (Human)) (P78352 65-246 limits assumed): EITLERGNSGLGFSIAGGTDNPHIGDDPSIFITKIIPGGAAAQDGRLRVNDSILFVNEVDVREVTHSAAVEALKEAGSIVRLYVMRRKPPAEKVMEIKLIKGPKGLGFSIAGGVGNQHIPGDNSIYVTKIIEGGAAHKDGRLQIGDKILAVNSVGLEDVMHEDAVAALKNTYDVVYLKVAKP

In the case of control chimeric peptide NA-1, the Kd is reported as 75.3 nM.

— patent US20200385425A1
